In patent publication US20230149556A1, “COMBINATION THERAPY” (ADC Therapeutics SA, priority 2017, published 2023):

Tested on: Ramos cells
Experiment: In vitro cytotoxicity MTS assay, chequerboard of ADC and rituximab (Example 4)
Type: cell-based
Details: single agent
Procedure: Ramos cells were cultured RPMI 1640 supplemented with 10% Hyclone FBS. The concentration and viability of cells from a sub-confluent (80-90% confluency) T75 flask were measured by trypan blue staining, and counted using the LUNA-II™ Automated Cell Counter. Cells were diluted to 2 x10^5/ml, dispensed (50 µl/well) into 96-well flat-bottom plates. A chequerboard was set up in combining 10-fold dilutions of ADCTx19 or ADCTx22 and 10-fold dilutions of rituximab in RPMI before 50 µl of each dilution was transferred into the 96-well plate containing the cells. This plate was incubated at 37° C. in a CO2-gassed incubator for 4 days. At the end of the incubation period, cell viability was measured by MTS assay. MTS (Promega) was dispensed (20 µl per well) into each well and incubated for 4 hours at 37C in the CO2-gassed incubator. Well absorbance was measured at 490 nm. IC50 was determined from the dose-response data using GraphPad Prism using the non-linear curve fit algorithm: sigmoidal dose-response curve with variable slope.

Rituximab: anti-CD20 agent, antibody, CAS 174722-31-7
cytotoxic effect by itself: no significant cytotoxic effect
